# Test results as given in IntAct's records for PubMed 29039417.
# B1: BBSome-interacting protein 1 (Homo sapiens), A8MTZ0 (parent)
# chain: MLKAAAKRPELSGKNTISNNSDMAEVKSMFREVLPKQGPLFVEDIMTMVLCKPKLLPLKSLTLEKLEKMHQAAQNTIRQQEMAEKDQRQITH
# partner: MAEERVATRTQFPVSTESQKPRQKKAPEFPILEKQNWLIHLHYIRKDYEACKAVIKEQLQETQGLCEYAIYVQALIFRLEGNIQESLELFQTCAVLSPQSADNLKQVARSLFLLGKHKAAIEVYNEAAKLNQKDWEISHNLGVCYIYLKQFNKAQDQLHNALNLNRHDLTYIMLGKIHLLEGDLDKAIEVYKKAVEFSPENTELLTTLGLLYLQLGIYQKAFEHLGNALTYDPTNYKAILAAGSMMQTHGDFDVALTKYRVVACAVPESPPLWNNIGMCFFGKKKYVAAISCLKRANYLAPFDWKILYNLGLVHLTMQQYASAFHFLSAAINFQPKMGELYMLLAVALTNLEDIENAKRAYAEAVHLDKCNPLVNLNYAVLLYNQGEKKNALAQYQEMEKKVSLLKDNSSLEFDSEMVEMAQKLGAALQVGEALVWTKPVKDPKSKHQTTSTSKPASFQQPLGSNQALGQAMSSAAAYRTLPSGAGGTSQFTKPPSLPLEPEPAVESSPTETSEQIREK
# Variants of: B1
# Details: with bbs4_human BBS4, Q96RK4
row,Variant,effect of a mutation on the interaction
1,MLKAAAKRPELSGKNTISNNSDMAEVKSMFREVLPKQGPLFVEDIMTMVLCKPKLLPLKSLSLEKLEKMHQAAQNTIRQQEMAEKDQRQITH [T62S],disrupting interaction strength
2,MLKAAAKRPELSGKNTISNNSDMAEVKSMFREVLPKQGPLFVEDIMTMVLCKPKLLPLKSLKLEKLEKMHQAAQNTIRQQEMAEKDQRQITH [T62K],with no effect
3,MLKAAAKRPELSGKNTISNNSDMAEVKSMFREVLPKQGPLFVEDIMTMVLCKPKLLPLKSLTLEKKEKMHQAAQNTIRQQEMAEKDQRQITH [L66K],with no effect
4,MLKAKAKRPELSGKNTISNNSDMAEVKSMFREVLPKQGPLFVEDIMTMVLCKPKLLPLKSLTLEKLEKMHQAAQNTIRQQEMAEKDQRQITH [A5K],with no effect
5,MLKAEAKRPELSGKNTISNNSDMAEVKSMFREVLPKQGPLFVEDIMTMVLCKPKLLPLKSLTLEKLEKMHQAAQNTIRQQEMAEKDQRQITH [A5E],with no effect
6,MLKAAAKRPELSGKNTISNNSDMAEAKSMFREVLPKQGPLFVEDIMTMVLCKPKLLPLKSLTLEKLEKMHQAAQNTIRQQEMAEKDQRQITH [V26A],with no effect
7,MLKAAAKRPELSGKNTISNNSDMAEVKSMFREVLPKQGPLFVEDIMTMVLCKPKLLPLKSLTLEKLEKMHQDAQNTIRQQEMAEKDQRQITH [A72D],disrupting interaction strength
8,MLKAAAKRPELSGKNTISNNSDMAEVKSMFREELPKQGPLFVEDIMTMVLCKPKLLPLKSLTLEKLEKMHQAAQNTIRQQEMAEKDQRQITH [V33E],with no effect
9,MLKAAAKRPELSGKNTASNNSDMAEVKSMFREVLPKQGPLFVEDIMTMVLCKPKLLPLKSLTLEKLEKMHQAAQNTIRQQEMAEKDQRQITH [I17A],with no effect
10,MLKAAAKRPELSGKNTISNNSDMAEVKSMFREVLPKQGPLFVEDIMTMELCKPKLLPLKSLTLEKLEKMHQAAQNTIRQQEMAEKDQRQITH [V49E],with no effect
11,MLKAAAKRPELSGKNTISNNSDMAEVASMFREVLPKQGPLFVEDIMTMVLCKPKLLPLKSLTLEKLEKMHQAAQNTIRQQEMAEKDQRQITH [K27A],with no effect
12,MLKAAAKRPELSGKNTISNNSDMAEVESMFREVLPKQGPLFVEDIMTMVLCKPKLLPLKSLTLEKLEKMHQAAQNTIRQQEMAEKDQRQITH [K27E],with no effect
13,MLKAAAKRPELSGKNTISNKSDMAEVKSMFREVLPKQGPLFVEDIMTMVLCKPKLLPLKSLTLEKLEKMHQAAQNTIRQQEMAEKDQRQITH [N20K],with no effect
14,MLKAAAKRPELSGKNTISNESDMAEVKSMFREVLPKQGPLFVEDIMTMVLCKPKLLPLKSLTLEKLEKMHQAAQNTIRQQEMAEKDQRQITH [N20E],with no effect
15,MLKAAAKRPELSGKNTIANNSDMAEVKSMFREVLPKQGPLFVEDIMTMVLCKPKLLPLKSLTLEKLEKMHQAAQNTIRQQEMAEKDQRQITH [S18A],with no effect
16,MLKAAAKRPELSGKNTIKNNSDMAEVKSMFREVLPKQGPLFVEDIMTMVLCKPKLLPLKSLTLEKLEKMHQAAQNTIRQQEMAEKDQRQITH [S18K],with no effect
17,MLKAAAKRPELSGKNTISNNSEMAEVKSMFREVLPKQGPLFVEDIMTMVLCKPKLLPLKSLTLEKLEKMHQAAQNTIRQQEMAEKDQRQITH [D22E],with no effect
18,MLKAAAKRPELSGKNTISNNSDMAEVKSMFREVLPKQGPLFVEDIMTMVLCKPKLLPLKSLTLEKLEKMHQAAQNTIRQQEEAEKDQRQITH [M82E],with no effect
19,MLKAAAKRPELSGKNTISNNSDMAEVKSMFREVDPKQGPLFVEDIMTMVLCKPKLLPLKSLTLEKLEKMHQAAQNTIRQQEMAEKDQRQITH [L34D],disrupting interaction strength
20,MLKAAAKRPELSGKNTISNNSDMAEVKSMFREVHPKQGPLFVEDIMTMVLCKPKLLPLKSLTLEKLEKMHQAAQNTIRQQEMAEKDQRQITH [L34H],disrupting interaction strength
21,MLKAAAKRPELSGKNTISNNSDMAEVKSMFREVKPKQGPLFVEDIMTMVLCKPKLLPLKSLTLEKLEKMHQAAQNTIRQQEMAEKDQRQITH [L34K],with no effect
22,MLKAAKKRPELSGKNTISNNSDMAEVKSMFREVLPKQGPLFVEDIMTMVLCKPKLLPLKSLTLEKLEKMHQAAQNTIRQQEMAEKDQRQITH [A6K],with no effect
23,ALKAAAKRPELSGKNTISNNSDMAEVKSMFREVLPKQGPLFVEDIMTMVLCKPKLLPLKSLTLEKLEKMHQAAQNTIRQQEMAEKDQRQITH [M1A],with no effect
24,MLKAAAKRPELSEKNTISNNSDMAEVKSMFREVLPKQGPLFVEDIMTMVLCKPKLLPLKSLTLEKLEKMHQAAQNTIRQQEMAEKDQRQITH [G13E],with no effect
25,MLKAAAKRPELSAKNTISNNSDMAEVKSMFREVLPKQGPLFVEDIMTMVLCKPKLLPLKSLTLEKLEKMHQAAQNTIRQQEMAEKDQRQITH [G13A],with no effect
26,MLKAAAKRPELSGKNTISNNSDMAEVKSMFREVLPKQGPLFVEDIMTMVLCKPKLLPLKSLTLEKLEKMHQAAQETIRQQEMAEKDQRQITH [N75E],with no effect
27,MLKAAAKRPELSGKNTISNNSDMAEVKSMFREVLPKQGPLFVEDAMTMVLCKPKLLPLKSLTLEKLEKMHQAAQNTIRQQEMAEKDQRQITH [I45A],with no effect

row,Variant,effect of a mutation on the interaction
1,MLKAAAKRPELSGKNTISNNSDMAEVKSMFREVLPKQGPLFVEDEMTMVLCKPKLLPLKSLTLEKLEKMHQAAQNTIRQQEMAEKDQRQITH [I45E],with no effect
2,MLKAAAKRPELSGKNTISNNSDMAEVKSMFREVLPKQGPLEVEDIMTMVLCKPKLLPLKSLTLEKLEKMHQAAQNTIRQQEMAEKDQRQITH [F41E],with no effect
3,MLKAAAKRPELSGKNTISNNSDMAEVKSMFREVLPKQGPLKVEDIMTMVLCKPKLLPLKSLTLEKLEKMHQAAQNTIRQQEMAEKDQRQITH [F41K],with no effect
4,MLKAAAKRPELSGKNTISNNSDMAEVKSMFREVLPKQGPLFVEDIMTMVLCKPKLLPLKSLTLEKLKKMHQAAQNTIRQQEMAEKDQRQITH [E67K],with no effect
5,MLKAAAKKPELSGKNTISNNSDMAEVKSMFREVLPKQGPLFVEDIMTMVLCKPKLLPLKSLTLEKLEKMHQAAQNTIRQQEMAEKDQRQITH [R8K],with no effect
6,MLKAAAKEPELSGKNTISNNSDMAEVKSMFREVLPKQGPLFVEDIMTMVLCKPKLLPLKSLTLEKLEKMHQAAQNTIRQQEMAEKDQRQITH [R8E],with no effect
7,MLKAAAKRPELSGKNTISNNSDMAEVKSMFKEVLPKQGPLFVEDIMTMVLCKPKLLPLKSLTLEKLEKMHQAAQNTIRQQEMAEKDQRQITH [R31K],with no effect
8,MLKAAAKRPELSGKNTISNNSDMAEVKSMFREVLPKQGPLFVEDIMTMVLCKPKLLPLKSLTLEKLEKMHQAAQNTIRAQEMAEKDQRQITH [Q79A],with no effect
9,MLKAAAKRPELSGKATISNNSDMAEVKSMFREVLPKQGPLFVEDIMTMVLCKPKLLPLKSLTLEKLEKMHQAAQNTIRQQEMAEKDQRQITH [N15A],with no effect
10,MLKAAAKRPELSGKNTISNNSDMAEVKSMFREVLPKQGPLFVEDIMTMVLCKPKLLPLKSLTLEKLEKMHAAAQNTIRQQEMAEKDQRQITH [Q71A],with no effect
11,MLKAAAKRPELSGKNTISNNSDMAEVKSMFREVLPKQGPLFVEDIMTMVLCKPKLLPLKSLTLEKLEKMHEAAQNTIRQQEMAEKDQRQITH [Q71E],with no effect
12,MLKAAAKRPELSGKNTISNNSDMAEVKSMFREVLPKQGPLFVEDIMTMVACKPKLLPLKSLTLEKLEKMHQAAQNTIRQQEMAEKDQRQITH [L50A],with no effect
13,MLKAAAKRPELSGKNTISNNSDMAEVKSMFREVLEKQGPLFVEDIMTMVLCKPKLLPLKSLTLEKLEKMHQAAQNTIRQQEMAEKDQRQITH [P35E],with no effect
14,MLKAAAKRPELSGKNTISNNEDMAEVKSMFREVLPKQGPLFVEDIMTMVLCKPKLLPLKSLTLEKLEKMHQAAQNTIRQQEMAEKDQRQITH [S21E],with no effect
15,MLKAAAKRPELSGKNTISNNSDMAEVKSMFREVLPKQGPLFVEDIMTMVLCKPKLLPLKSLTLEELEKMHQAAQNTIRQQEMAEKDQRQITH [K65E],with no effect
16,MLKAAAKRPELSGKNTISNNSDMAEVKSMFREVLPKQGPLFVEDIMTMVLCKPKLLPLKSLTLEKLEKMHQAAQNTIRQQEMAEKDQRQIEH [T91E],with no effect
17,MLKAAAKRPELSGKNTISNNSDMAEVKSMFREVLPKQGPLFVEDIMTMVLCKPKLLPLKSLTLEKLEKMHQAAQNTIRQQEMAEKDARQITH [Q87A],with no effect
18,MLKAAAKRPELSGKNTISNNSDAAEVKSMFREVLPKQGPLFVEDIMTMVLCKPKLLPLKSLTLEKLEKMHQAAQNTIRQQEMAEKDQRQITH [M23A],with no effect
19,MLKAAAKRPELSGKNTISNNSDMAEVKSMFREVLPKQGPLFVEDIMTMVLKKPKLLPLKSLTLEKLEKMHQAAQNTIRQQEMAEKDQRQITH [C51K],with no effect
20,MLKAAAKRPELSGKNTISNNSDMAEVKSMFREVLPKQGPLFVEDIMTMVLCKEKLLPLKSLTLEKLEKMHQAAQNTIRQQEMAEKDQRQITH [P53E],with no effect
21,MLKAAAKRPELSGKNTISNNSDMAEVKSMFREVLPKQGPAFVEDIMTMVLCKPKLLPLKSLTLEKLEKMHQAAQNTIRQQEMAEKDQRQITH [L40A],with no effect
22,MLKAAAKRPELSGKNTISNNSDMAEVKSMFREVLPKQGPEFVEDIMTMVLCKPKLLPLKSLTLEKLEKMHQAAQNTIRQQEMAEKDQRQITH [L40E],with no effect
23,MLKAAAKRPELSGKNTISNNSDMAEVKSMFREVLPKQGPLFVEDIMTMVLCKPKLKPLKSLTLEKLEKMHQAAQNTIRQQEMAEKDQRQITH [L56K],with no effect
24,MLKAAAKRPELSGKNTISNNSDMAEVKKMFREVLPKQGPLFVEDIMTMVLCKPKLLPLKSLTLEKLEKMHQAAQNTIRQQEMAEKDQRQITH [S28K],with no effect
25,MLKAAAKRPELSGKNTISNNSDMAEVKSMFREVLPKQGPLFVEDIMTMVLCKPKLLPLESLTLEKLEKMHQAAQNTIRQQEMAEKDQRQITH [K59E],with no effect
26,MLKAAAKRPELSGKNTISNNSDMAEVKSMAREVLPKQGPLFVEDIMTMVLCKPKLLPLKSLTLEKLEKMHQAAQNTIRQQEMAEKDQRQITH [F30A],with no effect
